Measurements as given in PMC2878198 (Journal of the American Chemical Society, 2009).

B1: LovD (Aspergillus terreus) (protein)
chain: MGSIIDAAAAADPVVLMETAFRKAVKSRQIPGAVIMARDCSGNLNYTRCFGARTVRRDECNQLPPLQVDTPCRLASATKLLTTIMALQCMERGLVDLDETVDRLLPDLSAMPVLEGFDDAGNARLRERRGKITLRHLLTHTSGLSYVFLHPLLREYMAQGHLQSAEKFGIQSRLAPPAVNDPGAEWIYGANLDWAGKLVERATGLDLEQYLQENICAPLGITDMTFKLQQRPDMLARRADQTHRNSADGRLRYDDSVYFRADGEECFGGQGVFSGPGSYMKVLHSLLKRDGLLLQPQTVDLMFQPALEPRLEEQMNQHMDASPHINYGGPMPMVLRRSFGLGGIIALEDLDGENWRRKGSLTFGGGPNIVWQIDPKAGLCTLAFFQLEPWNDPVCRDLTRTFEHAIYAQYQQG

What was measured:
LovF = LovF (Aspergillus terreus, UniProt Q9Y7D5); assay: FTMS of ACP-bound diketide; format: biochemical; settings: with SAM and NADPH; covalent loading on ACP
[1] = substrate: CC[C@H](C)C(=O)SCCNC(=O)CCNC(=O)[C@H](O)C(C)(C)COP(=O)(O)OP(=O)(O)OC[C@H]1O[C@@H](n2cnc3c(N)ncnc32)[C@H](O)[C@@H]1OP(=O)(O)O; assay: initial velocity of lovastatin formation by HPLC; format: biochemical, Aspergillus terreus; settings: acyl donor; acyl acceptor monacolin J
[2] = substrate: CC[C@H](C)C(=O)SCCNC(C)=O; assay: initial velocity of lovastatin formation by HPLC; format: biochemical, Aspergillus terreus; settings: acyl donor; acyl acceptor monacolin J

Chain of LovF (Q9Y7D5 whole entry): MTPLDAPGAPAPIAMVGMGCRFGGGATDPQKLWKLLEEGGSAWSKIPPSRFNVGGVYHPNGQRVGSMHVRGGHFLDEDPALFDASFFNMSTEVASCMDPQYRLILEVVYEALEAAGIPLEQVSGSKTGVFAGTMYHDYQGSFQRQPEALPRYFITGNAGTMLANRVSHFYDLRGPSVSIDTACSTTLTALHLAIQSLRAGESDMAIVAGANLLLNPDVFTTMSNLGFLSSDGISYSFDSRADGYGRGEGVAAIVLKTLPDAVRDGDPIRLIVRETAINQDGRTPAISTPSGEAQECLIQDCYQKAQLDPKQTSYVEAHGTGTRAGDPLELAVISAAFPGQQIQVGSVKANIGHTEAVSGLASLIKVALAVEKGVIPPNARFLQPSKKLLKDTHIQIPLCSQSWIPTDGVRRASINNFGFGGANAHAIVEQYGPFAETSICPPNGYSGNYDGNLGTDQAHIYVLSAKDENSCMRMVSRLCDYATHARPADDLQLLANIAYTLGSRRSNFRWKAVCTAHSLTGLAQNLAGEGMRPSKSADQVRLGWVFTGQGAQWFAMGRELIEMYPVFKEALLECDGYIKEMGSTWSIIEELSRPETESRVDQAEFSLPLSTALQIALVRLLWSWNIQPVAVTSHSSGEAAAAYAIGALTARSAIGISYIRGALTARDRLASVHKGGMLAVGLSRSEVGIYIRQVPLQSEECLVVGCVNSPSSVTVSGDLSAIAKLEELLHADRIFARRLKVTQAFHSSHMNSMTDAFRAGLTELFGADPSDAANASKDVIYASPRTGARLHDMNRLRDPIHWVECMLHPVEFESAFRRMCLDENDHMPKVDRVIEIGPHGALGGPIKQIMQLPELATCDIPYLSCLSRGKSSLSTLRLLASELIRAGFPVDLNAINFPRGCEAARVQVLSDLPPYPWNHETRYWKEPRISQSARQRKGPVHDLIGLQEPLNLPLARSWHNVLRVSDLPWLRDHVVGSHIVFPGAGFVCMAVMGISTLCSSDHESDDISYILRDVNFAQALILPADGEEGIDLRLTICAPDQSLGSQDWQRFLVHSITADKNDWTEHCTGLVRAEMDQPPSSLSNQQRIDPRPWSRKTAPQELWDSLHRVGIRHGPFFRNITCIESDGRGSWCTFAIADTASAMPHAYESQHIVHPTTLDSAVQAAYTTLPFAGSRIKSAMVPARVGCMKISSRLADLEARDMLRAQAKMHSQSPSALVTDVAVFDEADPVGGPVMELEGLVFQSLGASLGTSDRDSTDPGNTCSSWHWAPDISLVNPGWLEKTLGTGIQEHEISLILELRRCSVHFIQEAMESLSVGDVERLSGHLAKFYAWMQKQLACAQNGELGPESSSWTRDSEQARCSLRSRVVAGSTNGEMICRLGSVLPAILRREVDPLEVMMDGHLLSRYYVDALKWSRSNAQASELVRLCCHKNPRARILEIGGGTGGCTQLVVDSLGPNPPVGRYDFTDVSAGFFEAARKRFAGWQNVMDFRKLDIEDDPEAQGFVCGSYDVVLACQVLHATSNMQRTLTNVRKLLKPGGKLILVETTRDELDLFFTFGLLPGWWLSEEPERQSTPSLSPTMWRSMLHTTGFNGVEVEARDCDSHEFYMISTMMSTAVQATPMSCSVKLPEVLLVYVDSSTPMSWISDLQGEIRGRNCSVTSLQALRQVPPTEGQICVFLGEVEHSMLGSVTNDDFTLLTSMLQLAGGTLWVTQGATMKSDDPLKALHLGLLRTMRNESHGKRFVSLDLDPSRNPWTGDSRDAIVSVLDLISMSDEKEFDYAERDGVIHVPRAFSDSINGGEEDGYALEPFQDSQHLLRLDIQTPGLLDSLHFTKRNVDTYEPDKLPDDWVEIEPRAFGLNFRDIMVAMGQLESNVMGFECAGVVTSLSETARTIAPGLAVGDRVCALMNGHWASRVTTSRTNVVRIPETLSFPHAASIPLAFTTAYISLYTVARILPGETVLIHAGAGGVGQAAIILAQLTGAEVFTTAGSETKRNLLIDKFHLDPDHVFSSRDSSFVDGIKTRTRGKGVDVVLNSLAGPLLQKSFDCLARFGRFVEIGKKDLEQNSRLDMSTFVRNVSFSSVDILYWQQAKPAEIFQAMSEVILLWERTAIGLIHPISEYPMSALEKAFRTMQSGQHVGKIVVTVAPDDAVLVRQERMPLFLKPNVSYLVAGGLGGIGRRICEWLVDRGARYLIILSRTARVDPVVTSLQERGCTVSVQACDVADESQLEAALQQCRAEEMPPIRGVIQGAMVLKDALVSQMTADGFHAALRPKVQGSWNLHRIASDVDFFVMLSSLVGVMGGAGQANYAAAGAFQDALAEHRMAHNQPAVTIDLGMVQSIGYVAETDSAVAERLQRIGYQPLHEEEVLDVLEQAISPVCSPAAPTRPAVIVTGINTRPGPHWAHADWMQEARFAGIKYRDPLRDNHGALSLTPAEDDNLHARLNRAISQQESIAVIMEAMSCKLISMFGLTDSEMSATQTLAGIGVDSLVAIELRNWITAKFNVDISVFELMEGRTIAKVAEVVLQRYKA

Molecule | FTMS of ACP-bound diketide; LC-MS of product released by LovD (LovF) | Km [1] [mM] | kcat [1] [s⁻¹] | kcat/Km [1] [M⁻¹ s⁻¹] | Km [2] [mM] | kcat [2] [s⁻¹] | kcat/Km [2] [M⁻¹ s⁻¹]
CC(C)(COP(=O)(O)OP(=O)(O)OC[C@H]1O[C@@H](n2cnc3c(N)ncnc32)[C@H](O)[C@@H]1OP(=O)(O)O)[C@@H](O)C(=O)NCCC(=O)NCCSC(=O)CC(=O)O [malonyl-CoA] | we incubated LovF with malonyl-CoA, SAM and NADPH |  |  |  |  |  | 
B1 |  | 2.5 ± 0.31 | 0.00283 ± 0.000167 | 1.15 | 9.2 ± 0.9 | 0.0004 ± 1.67e-05 | 0.0267
